Common to all, as to assay: BLI
For orientation: BLI is a label-free optical method that tracks binding on a fibre tip over time.

The target in assay [1] is TY19.
The target in assay [2] is TY07.
In assay [3] the target is TY01.
Assay [4] has as its target AKBR-5.
Assay [5] concerns the target AKBR-1.

B1: Plasmodium yoelii TRAP ectodomain (PyTRAP) (domain or fragment)
chain: NGQETLDEIKYSEEVCTEQIDIHILLDGSGSIGYSNWKAHVIPMLNTLVDNLNISNDEINVSLTLFSTNSRELIKLKGYGSTSKDSLRFILAHLQNNYSPNGNTNLTSALLVVDTLINERMYRPDAIQLAIILTDGIPNDLPRSTAVVHQLKRKHVNVAIIGVGAGVNNEYNRILVGCDRYAPCPYYSSGSWNEAQNMIKPFLTKVCQEVERIAHCGKWEEWSECSTTCDEGRKIRRRQILHPGCVSEMTTPCKVRDCPQIPIPPVIPNKIPEKPSNPEEPVNPNDPNDPNNPNNPNNPNNPNNPNNPNNPNNPNNPNNPNNPNNPNNPNNPNNPNNPNNPNNPNNPNNPNNPNNPNNPNDPSNPNNPNPKKRNPKRRNPNKPKPNKPNPNKPNPNEPSNPNKPNPNEPSNPNKPNPNEPSNPNKPNPNEPSNPNKPNPNEPLNPNEPSNPNEPSNPNAPSNPNEPSNPNEPSNPNEPSNPNEPSNPNEPSNPKKPSNPNEPSNPNEPLNPNEPSNPNEPSNPNEPSNPEEPSNPKEPSNPNEPSNPEEPNPEEPSNPKEPSNPEEPINPEELNPKEPSNPEESNPKEPINPEESNPKEPINPEDNENPLIIQDEPIEPRNDSNVIPILPIIPQKGNNIPSNLPENPSDSEVEYPRPNDNGENSNNTMKSKKNIPNEPIPSPGDNPYKGHEERIPKPHRSNDDYVYDNNVNKNNKDEPEIPNNEYEEDKNKNQSKSNNGYK
modifications: site-specific biotinylation using BirA ligase, when required
What is called Kd is the constant that tells how readily two partners part at equilibrium. A word on the koff: it is the first-order rate constant of dissociation. Consider B1, for which the Kd was 307 nM in assay [1], 26.5 nM in assay [2] and 1.65 nM in assay [3]. Also, the koff in assay [1] turned out to be 0.0495 s⁻¹; in assay [2] it was 0.00397 s⁻¹; in assay [3], 0.000498 s⁻¹.

B2: Plasmodium falciparum TRAP ectodomain (PfTRAP) (domain or fragment)
chain: RDVQNNIVDEIKYSEEVCNDQVDLYLLMDCSGSIRRHNWVNHAVPLAMKLIQQLNLNDNAIHLYVNVFSNNAKEIIRLHSDASKNKEKALIIIRSLLSTNLPYGRTNLTDALLQVRKHLNDRINRENANQLVVILTDGIPDSIQDSLKESRKLSDRGVKIAVFGIGQGINVAFNRFLVGCHPSDGKCNLYADSAWENVKNVIGPFMKAVCVEVEKTASCGVWDEWSPCSVTCGKGTRSRKREILHEGCTSEIQEQCEEERCPPKWEPLDVPDEPEDDQPRPRGDNSSVQKPEENIIDNNPQEPSPNPEEGKDENPNGFDLDENPENPPNPDIPEQKPNIPEDSEKEVPSDVPKNPEDDREENFDIPKKPENKHDNQNNLPNDKSDRNIPYSPLPPKVLDNERKQSDPQSQDNNGNRHVPNSEDRETRPHGRNNENRSYNRKYNDTPKHPEREEHEKPDNNKKKGESDNKYK
modifications: site-specific biotinylation using BirA ligase, when required
In assay [4], B2 yielded a Kd of 52.9 nM and a koff of 0.00611 s⁻¹. In assay [5], the Kd stood at 194 nM and the koff stood at 0.00368 s⁻¹.

Source of the values: publication PMC9135708 (2022).
